Source: patent US20260209321A1 (SINGAPORE HEALTH SERVICES PTE, published 2026)

Legend:
Peptide-biotin [1] = target: T1, Peptide-biotin; assay: SPR Biacore 8K affinity ranking; antibody Fc-captured, Peptide-biotin analyte, 1:1 fit
T1 construct: also called antigen
Experimental: For affinity ranking, antibodies were captured on the sensor chip through Fc capture method. Peptide-biotin was used as the analyte. The surface was regenerated before the injection of another antibody. The process was repeated until all antibodies are analyzed. The off-rates of antibodies were obtained from fitting the experimental data locally to 1:1 interaction model using the Biacore 8K evaluation software. The antibodies were ranked by their dissociation rate constants (off-rates, kd). Based on the ranking result, the top 3 clones were selected.
Humanized antibodies were generated by replacing the framework regions (FRs) from mouse M4M antibody with counterparts from human, while maintaining the antibody's complementarity-determining regions (CDRs) binding regions. The antibody binding affinity of the chimeric and humanized antibodies was assessed by surface plasmon resonance (SPR) as shown in Table 1. Antibody clone A1 is the chimeric antibody and antibody clones A2-7 are humanized antibodies. Based on the results obtained from SPR, humanized clone A2 has the strongest SPR signal. For affinity ranking, antibodies were captured on the sensor chip through Fc capture method. Peptide-biotin was used as the analyte. The surface was regenerated before the injection of another antibody. The process was repeated until all antibodies are analyzed. The off-rates of antibodies were obtained from fitting the experimental data locally to 1:1 interaction model using the Biacore 8K evaluation software. The antibodies were ranked by their dissociation rate constants (off-rates, kd). Based on the ranking result, the top humanized clones were selected. […] Bolded and underlined amino acids correspond to the back mutation sites in the framework regions.

Peptide-biotin [2] = target: T1, Peptide-biotin; assay: SPR Biacore 8K, purified IgG Fc-captured, Peptide-biotin analyte, 1:1 fit
Experimental: The affinity of purified antibody binding to Peptide-biotin was individually determined using a Surface Plasmon Resonance (SPR) biosensor, Biacore 8K (GE Healthcare). Antibodies were captured on the sensor chip through Fc capture method. Peptide-biotin was used as the analyte. The data of dissociation (kd) and association (ka) rate constants were obtained using Biacore 8K evaluation software. The equilibrium dissociation constants (KD) were calculated from the ratio of kd over ka.

[3] = target: human TRPM4 expressed in transfected HEK 293 cells (human, UniProt Q8TD43 1-1214); assay: cell-based or functional assay
Sequence of human TRPM4 expressed in transfected HEK 293 cells (Q8TD43 whole entry): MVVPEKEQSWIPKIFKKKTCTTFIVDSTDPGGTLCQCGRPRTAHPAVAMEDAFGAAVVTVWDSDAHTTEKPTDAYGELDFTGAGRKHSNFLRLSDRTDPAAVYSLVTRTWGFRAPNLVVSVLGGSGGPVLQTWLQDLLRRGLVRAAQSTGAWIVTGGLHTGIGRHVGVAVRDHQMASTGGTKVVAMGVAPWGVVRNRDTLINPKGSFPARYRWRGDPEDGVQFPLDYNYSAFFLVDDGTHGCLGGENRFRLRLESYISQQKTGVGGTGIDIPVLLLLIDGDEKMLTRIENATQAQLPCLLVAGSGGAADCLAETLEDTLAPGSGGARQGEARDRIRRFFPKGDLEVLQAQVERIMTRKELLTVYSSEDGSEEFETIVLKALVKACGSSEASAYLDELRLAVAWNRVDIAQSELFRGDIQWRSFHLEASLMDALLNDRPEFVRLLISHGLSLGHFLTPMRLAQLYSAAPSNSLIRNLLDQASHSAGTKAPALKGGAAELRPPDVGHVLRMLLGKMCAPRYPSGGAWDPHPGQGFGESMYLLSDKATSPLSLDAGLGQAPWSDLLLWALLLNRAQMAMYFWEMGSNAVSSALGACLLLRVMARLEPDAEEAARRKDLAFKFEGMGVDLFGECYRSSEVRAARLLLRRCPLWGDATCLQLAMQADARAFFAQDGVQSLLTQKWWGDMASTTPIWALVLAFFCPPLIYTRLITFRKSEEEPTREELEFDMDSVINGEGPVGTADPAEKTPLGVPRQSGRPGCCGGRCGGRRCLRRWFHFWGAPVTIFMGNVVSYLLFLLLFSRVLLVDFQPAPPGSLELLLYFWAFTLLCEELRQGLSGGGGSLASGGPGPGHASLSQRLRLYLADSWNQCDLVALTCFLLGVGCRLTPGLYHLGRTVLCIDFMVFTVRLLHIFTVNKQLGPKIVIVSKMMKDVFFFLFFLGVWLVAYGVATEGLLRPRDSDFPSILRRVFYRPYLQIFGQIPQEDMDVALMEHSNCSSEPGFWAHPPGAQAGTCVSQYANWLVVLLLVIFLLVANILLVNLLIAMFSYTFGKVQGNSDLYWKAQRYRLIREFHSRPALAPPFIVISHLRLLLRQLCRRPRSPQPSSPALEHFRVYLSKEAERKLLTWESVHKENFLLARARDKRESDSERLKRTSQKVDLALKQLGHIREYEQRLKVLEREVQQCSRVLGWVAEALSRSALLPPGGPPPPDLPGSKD

B1: humanized anti-TRPM4 antibody clone A2 (VH1 + VL1) (antibody, human IgG1, kappa, V domains shown)
VH: QVQLQESGPGLVKPSQTLSLTCTVSGYSITSDYAWNWIRQHPGKGLEWIGYLSYSGVTSYNPSLKGRVTISVDTSKNQFSLKLSSVTAADTAVYYCARKGTYYRYEGSYWYFDVWGQGTTVTVSS
VL: DIQMTQSPSSLSASVGDRVTITCHANQNIDVWLSWYQQKPGKAPKLLIYKTSNLHTGVPSRFSGSGSGTDFTFTISSLQPEDIATYYCQQGQSYPLTFGGGTKLEIKR
notes: also called VH1 + VL1 (A2)
Kd (Peptide-biotin [1]): 6.66 nM
koff (Peptide-biotin [1]): 0.00166 s⁻¹
kon (Peptide-biotin [1]): 249000 M⁻¹ s⁻¹
Kd (Peptide-biotin [2]): 3.16 nM
koff (Peptide-biotin [2]): 0.000605 s⁻¹
kon (Peptide-biotin [2]): 191000 M⁻¹ s⁻¹
IC50 of dose-dependent inhibition of hypoxia-induced TRPM4 current increase (whole-cell patch clamp) [3]: 1.23 µg/mL
